Measured values as given in PMC6318280, “A novel m^6A reader Prrc2a controls oligodendroglial specification and myelination” (Cell Research, 2018).

Molecular target: T1, FLAG-Prrc2a-P2 (residue 761-1408) (mouse, UniProt Q7TSC1 761-1408)
T1 construct: Prrc2a p2 fragment, residue 761-1408, amplified from a mouse cDNA library; holds the region rich in glycine, arginine and glutamic acid (GRE domain); the legend of the pull-down names FLAG-Prrc2a-P2 beside P1, P3 and P4, which fits the proteins purified from HEK293T cells; also called P2 fragment; GRE domain; source: HEK293T, transfected, purified (FLAG beads, eluted with 3xFLAG peptide)
Assay: pull-down; in vitro GST pull-down with purified GST-YTHDF2 and purified FLAG-Prrc2a fragments
Conditions: both partners purified

T1 sequence (Q7TSC1 761-1408): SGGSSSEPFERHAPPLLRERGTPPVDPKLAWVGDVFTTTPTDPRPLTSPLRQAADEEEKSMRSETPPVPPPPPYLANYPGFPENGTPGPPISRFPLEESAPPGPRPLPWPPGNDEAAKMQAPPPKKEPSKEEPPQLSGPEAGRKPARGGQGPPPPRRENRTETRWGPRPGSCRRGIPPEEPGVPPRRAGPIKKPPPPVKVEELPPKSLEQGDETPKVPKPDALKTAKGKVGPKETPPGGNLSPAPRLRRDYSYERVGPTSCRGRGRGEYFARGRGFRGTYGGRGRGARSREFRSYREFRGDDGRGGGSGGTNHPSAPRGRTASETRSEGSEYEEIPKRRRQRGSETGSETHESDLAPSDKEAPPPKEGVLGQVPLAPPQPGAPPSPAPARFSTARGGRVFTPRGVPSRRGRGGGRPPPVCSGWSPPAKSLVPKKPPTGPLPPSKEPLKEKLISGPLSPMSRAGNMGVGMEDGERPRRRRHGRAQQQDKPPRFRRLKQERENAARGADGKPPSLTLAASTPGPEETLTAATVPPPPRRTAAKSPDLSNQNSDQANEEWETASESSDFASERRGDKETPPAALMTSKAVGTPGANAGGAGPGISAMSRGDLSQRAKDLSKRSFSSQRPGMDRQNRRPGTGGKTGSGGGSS

binding result: binds
B1: GST-YTHDF2 (natural protein, human, UniProt Q9Y5A9 1-579, looked up)
chain: MSASSLLEQRPKGQGNKVQNGSVHQKDGLNDDDFEPYLSPQARPNNAYTAMSDSYLPSYYSPSIGFSYSLGEAAWSTGGDTAMPYLTSYGQLSNGEPHFLPDAMFGQPGALGSTPFLGQHGFNFFPSGIDFSAWGNNSSQGQSTQSSGYSSNYAYAPSSLGGAMIDGQSAFANETLNKAPGMNTIDQGMAALKLGSTEVASNVPKVVGSAVGSGSITSNIVASNSLPPATIAPPKPASWADIASKPAKQQPKLKTKNGIAGSSLPPPPIKHNMDIGTWDNKGPVAKAPSQALVQNIGQPTQGSPQPVGQQANNSPPVAQASVGQQTQPLPPPPPQPAQLSVQQQAAQPTRWVAPRNRGSGFGHNGVDGNGVGQSQAGSGSTPSEPHPVLEKLRSINNYNPKDFDWNLKHGRVFIIKSYSEDDIHRSIKYNIWCSTEHGNKRLDAAYRSMNGKGPVYLLFSVNGSGHFCGVAEMKSAVDYNTCAGVWSQDKWKGRFDVRWIFVKDVPNSQLRHIRLENNENKPVTNSRDTQEVPLEKAKQVLKIIASYKHTTSIFDDFSHYEKRQEEEESVKKERQGRGK
notes: human YTHDF2 gene subcloned into a pGEX expression vector with GST-tag; also called recombinant GST-YTHDF2; source: E. coli BL21 (DE3), purified (FPLC, Profinity GST cartridge)
